Consider one substance from patent US20200046770A1.

pKd: −log10 of the molar value.

The test has as its target PDGF-DD (active, proteolytically processed homodimer) as used in solid-phase binding and SPR (human) (UniProt Q9GZP0). Put plainly: SPR (Biacore T100), PDGF-DD immobilised on CM5 chip, NKp44 18-130-His6 in the mobile phase, steady-state fit for a 1:1 interaction.

Chain of PDGF-DD (active, proteolytically processed homodimer) as used in solid-phase binding and SPR (human) (Q9GZP0 184-370 limits assumed, form in doubt): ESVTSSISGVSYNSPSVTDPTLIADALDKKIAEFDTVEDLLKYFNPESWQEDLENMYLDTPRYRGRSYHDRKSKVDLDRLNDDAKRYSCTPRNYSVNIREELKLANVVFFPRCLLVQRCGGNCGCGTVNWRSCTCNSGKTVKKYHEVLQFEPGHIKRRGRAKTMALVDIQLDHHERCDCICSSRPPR

Regarding “Bacterial expressed NKp44 (residues 18-130 with a C-terminal His6 tag) (from UniProt O95944 18-130) (receptor)”, the pKd (in general, the negative decadic logarithm of the Kd, by convention in mol/L) was 5.48.
